From article doi:10.1101/2020.07.03.182295 (bioRxiv, 2020)

Target: the molecule itself
Test: SEC

B1: R54C αA-crystallin (recombinant human) (natural protein)
chain: MDVTIQHPWFKRTLGPFYPSRLFDQFFGEGLFEYDLLPFLSSTISPYYRQSLFCTVLDSGISEVRSDRDKFVIFLDVKHFSPEDLTVKVQDDFVEIHGKHNERQDDHGYISREFHRRYRLPSNVDQSALSCSLSADGMLTFCGPKIQTGLDATHAERAIPVSREEKPTSAPSS
binding result: binds
